Experimental data published in patent US20240165226A1, “COMBINATION TREATMENT OF CD38-EXPRESSING TUMORS” (GENMAB A/S, priority 2006, published 2024).
Blank lines part the entries; values can stand above or below the molecule they belong to.

Assays:
[1] = molecular target: T1, CD38-transfected CHO (CHO-CD38) cells (Homo sapiens, UniProt P28907); test: Binding to CD38-transfected CHO cells by flow cytometry; conditions: for binding to CHO-CD38 cells: in words
T1 construct: expressed in transfected cells; host or cells: CHO cells
Experimental: (§1) After harvesting and counting, Daudi-luc cells, CHO cells transfected with CD38 and control CHO cells were resuspended in PBS (1×10^6 cells/ml). Then, cells were put in 96-well V-bottom plates (100 μl/well) and washed twice in PBS-BSA (PBS supplemented with 0.1% BSA and 0.02% Na-azide). Thereafter, 50 μl antibody solution in PBS-BSA was added to the cells (4° C., 30 min). After washing three times in PBS-BSA, 50 μl (1:400 dilution) of rabbit anti-human IgG-FITC in PBS-BSA was added (4° C. in the dark, 30 min). Cells were washed three times and specific binding of CD38-antibodies to CHO-CD38 and Daudi-luc cells was detected by flow cytometry. HuMab-KLH (a human monoclonal antibody against KLH (keyhole limpet haemocyanin) generated by Genmab B.V., Utrecht, The Netherlands by use of the immunization protocols described elsewhere herein) was used as a control. […] No binding to control CHO cells is observed (data not shown).

[2] = test system: PBMCs; test: Induction of IL-6 release by PBMC; assay type: cell-based, human; conditions: 20 μg/ml antibody and 10 ng/ml LPS, 7 donors
Experimental: -003, -005 and -024 were tested in an assay as described in Ausiello et al., Tissue antigens 56, 538-547 (2000). Briefly, PBMCs were cultured at 1×10^6 cells/well in 48-well plates in the presence of 20 μg/ml of antibodies and 10 ng/ml LPS (Sigma-Aldrich Chemie, Zwijndrecht, The Netherlands) in 500 μl RPMI^++. After an O/N incubation at 37° C., supernatant was harvested and stored at −20° C. The IL-6 concentration was assessed by ELISA (IL-6 ELISA kit, U-CyTech Biosciences, Utrecht, The Netherlands) according to the manufacturer's instructions. Data are shown mean concentration in pg/ml (±SEM) from 7 donors.

[3] = test system: tumor cells obtained from different MM patients; test: Complement-dependent cytotoxicity of tumor cells from MM patients; assay type: cell-based, human; conditions: in words
[4] = test system: PBMCs; test: Induction of proliferation of PBMC; assay type: cell-based, human; conditions: 1.1-30 μg/ml, 3H-thymidine incorporation, 10 donors
Experimental: -003, -005 and -024 were tested in an assay essentially as described in Ausiello et al., Tissue antigens 56, 538-547 (2000). Briefly, PBMCs from healthy donors were cultured at 1×10^5 cells/well in flat bottom 96-well plates in the presence of antibodies (final concentration: 1.1-3.3-10-30 μg/ml) in 200 μl RPMI^++. Stimulation of cells with IL-15 (at 333 ng/ml; Amgen Inc., Thousand Oaks, CA, USA) was used as positive control. After a 4 day incubation at 37° C., 30 μl ^3H-thymidine (16.7 μCi/ml) was added, and culture was continued O/N. ^3H-thymidine incorporation was assessed using a […] (Packard Instruments, Meriden, DT, USA), according to the manufacturer's instructions. Data are shown as the mean cpm (±SEM) of PBMCs obtained from 10 donors.

[5] = test system: Daudi-luc cells; test: Binding to Daudi-luc cells by flow cytometry; conditions: for binding to Daudi-luc cells: in words
Experimental: as §1

[6] = test system: fresh plasma cell leukemia tumor cells; test: ADCC set up II, plasma cell leukemia tumor cells; assay type: cell-based, human; conditions: in words
Experimental: Human blood from human volunteers (university Erlangen, Erlangen, Germany) was diluted twice in RPMI 1640 and blood cells were layered on Ficoll (Lymphocyte Separation Medium […], 710 g, RT, 20 min; BioWhittaker, Cambrex Bio Science Verviers, Verviers, Belgium, cat. 17-829E, lot no. 0148 32). Peripheral blood mononuclear cells (MNCs) were collected from the interphase, washed and resuspended in RPMI 1640 culture medium supplemented with 10% FCS, 2 mM L-glutamine, 5 U/ml penicillin, 50 μg/ml streptomycin (all derived from BioWhittaker) to which 25 mM HEPES (BioWhittaker) was added.
Target B-cells (fresh plasma cell leukemia tumor cells, JK6L and AMO-1 B-cell lines, obtained from Dr. T. Valerius, University of Erlangen, Erlangen, Germany) were labeled with 20 μCi ^51Cr (Amersham Biosciences, Uppsala, Sweden) for 2 hours. After extensive washing in RPMI-10, cells were adjusted to 1×10^5 cells/ml. […] After incubation (3 hr, 37° C.), assays were stopped by centrifugation, and 51Cr release from triplicates was measured in counts per minute (cpm) in a scintillation counter. Percentage of cellular cytotoxicity was calculated using the following formula: […]
with maximal ^51Cr release determined by adding perchloric acid (3% final concentration) to target cells, and basal release was measured in the absence of sensitizing antibodies and effector cells.

Molecule: -005: human monoclonal IgG1 anti-CD38 antibody, VL region SEQ ID No:12 and VH region SEQ ID No:17
EC50 CHO-CD38 ([1]; binding, flow cytometry): 0.23 µg/mL | binding to CHO-CD38 cells [1]: bind | release of IL-6 [2]: does not induce release of significant IL-6 levels | CDC-mediated lysis of MM patient tumor cells [3]: CDC-mediated lysis is observed | proliferation of PBMCs [4]: do not induce significant proliferation | EC50 Daudi-luc ([5]; binding, flow cytometry): 0.09 µg/mL | binding to Daudi-luc cells [5]: bind | ADCC of plasma cell leukemia primary tumor cells [6]: induce ADCC

binding to CHO-CD38 cells [1]: bind
B1: -024: human monoclonal IgG1 anti-CD38 antibody, VL region SEQ ID No:22 and VH region SEQ ID No:27 (antibody, listed as Homo sapiens, V domains shown)
VH: EVQLVQSGAEVKKPGESLKISCKGSGYSFSNYWIGWVRQMPGKGLEWMGIIYPHDSDARYSPSFQGQVTFSADKSISTAYLQWSSLKASDTAMYYCARHVGWGSRYWYFDLWGRGTLVTVSS
VL: EIVLTQSPATLSLSPGERATLSCRASQSVSSYLAWYQQKPGQAPGLLIYDASNRASGIPARFSGSGSGTDFTLTISSLEPEDFAVYYCQQRSNWPLTFGGGTKVEIK
release of IL-6 [2]: did not induce release of significant IL-6 levels | CDC-mediated lysis of MM patient tumor cells [3]: induced lysis | proliferation of PBMCs [4]: did not induce significant proliferation | binding to Daudi-luc cells [5]: bind | ADCC of plasma cell leukemia primary tumor cells [6]: induce ADCC
